Drawing on publication PMC10147665, this text covers response for one variant.

Sequences and labels used below:
B1: endogenous PDPK1 [not stated (endogenous; cell line of this co-IP not named)] / endogenous PID1 [not stated (endogenous; cell line of this co-IP not named)] (parent)
chain 1: MFSLPLSLPLCEDTAFLPSKCCSSHKTIKQARTLIMIFLASGTHFQTMLKSKLNVLTLKKEPLPAVIFHEPEAIELCTTTPLMKTRTHSGCKVTYLGKVSTTGMQFLSGCTEKPVIELWKKHTLAREDVFPANALLEIRPFQVWLHHLDHKGEATVHMDTFQVARIAYCTADHNVSPNIFAWVYREINDDLSYQMDCHAVECESKLEAKKLAHAMMEAFRKTFHSMKSDGRIHSNSSSEEVSQELESDDG
chain 2: MARTTSQLYDAVPIQSSVVLCSCPSPSMVRTQTESSTPPGIPGGSRQGPAMDGTAAEPRPGAGSLQHAQPPPQPRKKRPEDFKFGKILGEGSFSTVVLARELATSREYAIKILEKRHIIKENKVPYVTRERDVMSRLDHPFFVKLYFTFQDDEKLYFGLSYAKNGELLKYIRKIGSFDETCTRFYTAEIVSALEYLHGKGIIHRDLKPENILLNEDMHIQITDFGTAKVLSPESKQARANSFVGTAQYVSPELLTEKSACKSSDLWALGCIIYQLVAGLPPFRAGNEYLIFQKIIKLEYDFPEKFFPKARDLVEKLLVLDATKRLGCEEMEGYGPLKAHPFFESVTWENLHQQTPPKLTAYLPAMSEDDEDCYGNYDNLLSQFGCMQVSSSSSSHSLSASDTGLPQRSGSNIEQYIHDLDSNSFELDLQFSEDEKRLLLEKQAGGNPWHQFVENNLILKMGPVDKRKGLFARRRQLLLTEGPHLYYVDPVNKVLKGEIPWSQELRPEAKNFKTFFVHTPNRTYYLMDPSGNAHKWCRKIQEVWRQRYQSHPDAAVQ

In one test the parent is B1. Nature of the test: co-immunoprecipitation (IP: HA, IB: PID1), band densitometry. To be noted: with endogenous PID1 [not stated (endogenous; cell line of this co-IP not named)]; IGF-1 + (insulin -); read off a plot.
For the variant chain 2 MARTTSQLFDAVPIQSSVVLCSCPSPSMVRTQTESSTPPGIPGGSRQGPAMDGTAAEPRPGAGSLQHAQPPPQPRKKRPEDFKFGKILGEGSFSTVVLARELATSREYAIKILEKRHIIKENKVPYVTRERDVMSRLDHPFFVKLYFTFQDDEKLYFGLSYAKNGELLKYIRKIGSFDETCTRFYTAEIVSALEYLHGKGIIHRDLKPENILLNEDMHIQITDFGTAKVLSPESKQARANSFVGTAQYVSPELLTEKSACKSSDLWALGCIIYQLVAGLPPFRAGNEYLIFQKIIKLEYDFPEKFFPKARDLVEKLLVLDATKRLGCEEMEGYGPLKAHPFFESVTWENLHQQTPPKLTAYLPAMSEDDEDCFGNFDNLLSQFGCMQVSSSSSSHSLSASDTGLPQRSGSNIEQYIHDLDSNSFELDLQFSEDEKRLLLEKQAGGNPWHQFVENNLILKMGPVDKRKGLFARRRQLLLTEGPHLYYVDPVNKVLKGEIPWSQELRPEAKNFKTFFVHTPNRTYYLMDPSGNAHKWCRKIQEVWRQRYQSHPDAAVQ [chain 2 Y9F Y373F Y376F], the response came to 0.06.

Still in this test, the particulars now being: with endogenous PID1 [not stated (endogenous; cell line of this co-IP not named)]; insulin + (IGF-1 -); read off a plot.
For the variant chain 2 MARTTSQLFDAVPIQSSVVLCSCPSPSMVRTQTESSTPPGIPGGSRQGPAMDGTAAEPRPGAGSLQHAQPPPQPRKKRPEDFKFGKILGEGSFSTVVLARELATSREYAIKILEKRHIIKENKVPYVTRERDVMSRLDHPFFVKLYFTFQDDEKLYFGLSYAKNGELLKYIRKIGSFDETCTRFYTAEIVSALEYLHGKGIIHRDLKPENILLNEDMHIQITDFGTAKVLSPESKQARANSFVGTAQYVSPELLTEKSACKSSDLWALGCIIYQLVAGLPPFRAGNEYLIFQKIIKLEYDFPEKFFPKARDLVEKLLVLDATKRLGCEEMEGYGPLKAHPFFESVTWENLHQQTPPKLTAYLPAMSEDDEDCFGNFDNLLSQFGCMQVSSSSSSHSLSASDTGLPQRSGSNIEQYIHDLDSNSFELDLQFSEDEKRLLLEKQAGGNPWHQFVENNLILKMGPVDKRKGLFARRRQLLLTEGPHLYYVDPVNKVLKGEIPWSQELRPEAKNFKTFFVHTPNRTYYLMDPSGNAHKWCRKIQEVWRQRYQSHPDAAVQ [chain 2 Y9F Y373F Y376F], the response is 0.06.

Still in this test, the particulars now being: with endogenous PID1 [not stated (endogenous; cell line of this co-IP not named)]; no growth factor (IGF-1 -, insulin -); read off a plot.
Take chain 2 MARTTSQLFDAVPIQSSVVLCSCPSPSMVRTQTESSTPPGIPGGSRQGPAMDGTAAEPRPGAGSLQHAQPPPQPRKKRPEDFKFGKILGEGSFSTVVLARELATSREYAIKILEKRHIIKENKVPYVTRERDVMSRLDHPFFVKLYFTFQDDEKLYFGLSYAKNGELLKYIRKIGSFDETCTRFYTAEIVSALEYLHGKGIIHRDLKPENILLNEDMHIQITDFGTAKVLSPESKQARANSFVGTAQYVSPELLTEKSACKSSDLWALGCIIYQLVAGLPPFRAGNEYLIFQKIIKLEYDFPEKFFPKARDLVEKLLVLDATKRLGCEEMEGYGPLKAHPFFESVTWENLHQQTPPKLTAYLPAMSEDDEDCFGNFDNLLSQFGCMQVSSSSSSHSLSASDTGLPQRSGSNIEQYIHDLDSNSFELDLQFSEDEKRLLLEKQAGGNPWHQFVENNLILKMGPVDKRKGLFARRRQLLLTEGPHLYYVDPVNKVLKGEIPWSQELRPEAKNFKTFFVHTPNRTYYLMDPSGNAHKWCRKIQEVWRQRYQSHPDAAVQ [chain 2 Y9F Y373F Y376F]: the response was found to be 0.07.
